Measured values reported in patent US20240425569A1 (VISTERRA, published 2024).
Residue numbers refer to the chain shown, from its start. Like-named read-outs stand apart in the source and are kept apart here.

Assays:
[1] = target: T1, Puerto Rico/1977 (serotype III EDIII); assay: SPR; row Puerto Rico/1977, serotype III, genotype IV
T1 construct: Genotype IV; also called ED3-DV3/PuertoRico77
T1 E protein domain III (EDIII): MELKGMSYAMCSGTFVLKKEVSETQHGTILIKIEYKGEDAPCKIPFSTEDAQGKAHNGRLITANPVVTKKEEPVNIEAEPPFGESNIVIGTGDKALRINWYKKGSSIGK

[2] = target: T2, Nicaragua/2010 (serotype III EDIII)
T2 construct: also called ED3-DV3/Nicaragua10; DENV-3 Nic
T2 E protein domain III (EDIII): T1 E protein domain III (EDIII) with S12T, G13N, I33V, A40V, A51G, T91I, K94N, R97K

[3] = target: T1, Puerto Rico/1977 (serotype III EDIII); assay: ELISA; row Puerto Rico/1977, serotype III, genotype IV
[4] = target: T3, Vietnam/2008 (serotype I EDIII)
T3 construct: also called ED3-DV1/Viet08
T3 E protein domain III (EDIII): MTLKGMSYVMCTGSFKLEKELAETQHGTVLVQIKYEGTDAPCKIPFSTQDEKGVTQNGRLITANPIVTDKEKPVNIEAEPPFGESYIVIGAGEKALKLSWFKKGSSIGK

[5] = target: T4, ED3-DV4/H241/Phil56 (EDIII of DENV-4 strain H241) (dengue virus serotype DENV-4, strain …, UniProt Q58HT7 572-679); assay: Kd table, method not stated; Ag DENV-4 Phil
[6] = target: T5, Singapore/2009 (serotype III EDIII)
T5 construct: also called ED3-DV3/Sing09; DENV-3 Sing
T5 E protein domain III (EDIII): T1 E protein domain III (EDIII) with S12Q, G13N, T14A, I33V, A51G, T91I, R97K

[7] = target: T6, Singapore/2010 (serotype IV EDIII); assay: ELISA; row Singapore/2010, serotype IV, genotype IIb
T6 construct: also called ED3-DV4/Sing10; DENV-4 Sing
T6 E protein domain III (EDIII): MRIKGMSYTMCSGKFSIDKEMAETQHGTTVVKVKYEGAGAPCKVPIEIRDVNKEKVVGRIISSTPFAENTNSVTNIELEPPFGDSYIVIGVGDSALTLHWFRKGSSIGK

[8] = target: T6, Singapore/2010 (serotype IV EDIII); assay: Kd table, method not stated; Ag DENV-4 Sing
[9] = target: T4, ED3-DV4/H241/Phil56 (EDIII of DENV-4 …)
[10] = target: T7, New Caledonia/2009 (serotype IV EDIII); assay: Kd table, method not stated; Ag DENV-4 NC
T7 construct: also called ED3-DV4/NewCal09; DENV-4 NC
T7 E protein domain III (EDIII): T6 E protein domain III (EDIII) with V44I, T74I

[11] = target: T8, EDIII-DV4 (E protein domain III of dengue virus serotype DV-4) (dengue virus serotype DV-4, UniProt P09866 572-679)
T8 construct: also called DENV-4

[12] = target: T9, Vietnam/2007 (serotype II EDIII); assay: SPR; row Vietnam/2007, serotype II, genotype Asian II
T9 construct: Genotype Asian II; also called ED3-DV2/Viet07
T9 E protein domain III (EDIII): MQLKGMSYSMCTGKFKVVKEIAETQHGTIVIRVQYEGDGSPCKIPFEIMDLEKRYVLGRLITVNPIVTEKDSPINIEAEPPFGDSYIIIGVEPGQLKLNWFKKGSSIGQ

[13] = target: T10, Peru/1995 (serotype II EDIII); assay: SPR; row Peru/1995, serotype II, genotype American
T10 construct: also called ED3-DV2/Peru95; DENV-2 Peru

[14] = target: T10, Peru/1995 (serotype II EDIII); assay: ELISA; row Peru/1995, serotype II, genotype American
[15] = target: T11, New Guinea/1944 (NGC)* (serotype II EDIII) (Dengue virus 2); assay: ELISA; row New Guinea/1944 (NGC)*, serotype II, genotype Asian I
T11 construct: isolated EDIII protein; also called EDIII of DENV-2 NGC

[16] = target: T5, Singapore/2009 (serotype III EDIII)
[17] = target: T12, Singapore/2008 (serotype II EDIII); assay: SPR; row Singapore/2008, serotype II, genotype Cosmopolitan
T12 construct: also called ED3-DV2/Sing08; DENV-2 Sing

[18] = target: T4, ED3-DV4/H241/Phil56 (EDIII of DENV-4 …); assay: SPR; row Philippines/1956 (H241)*, serotype IV, genotype I
[19] = target: T13, Cambodia/2008 (serotype III EDIII); assay: SPR; row Cambodia/2008, serotype III, genotype II
T13 construct: Genotype II; also called ED3-DV3/Cambodia08
T13 E protein domain III (EDIII): T1 E protein domain III (EDIII) with S12L, G13N, I33V, A51G, N57S, T91I, R97K

[20] = target: T14, Philippines/1956 (H87)* (serotype III EDIII) (Dengue virus 3); assay: ELISA; row Philippines/1956 (H87)*, serotype III, genotype I
T14 construct: isolated EDIII protein

B1: antibody D88 (antibody, V domains shown)
VH: QVQLVQSGAEVKKPGASVKVSCKAGFNIKDVYMSWVRQAPEQGLEWMGRIDPENGDTKYDPKLQGRVTMTADTSTNTAYMELRSLRSDDTAVYYCARGWEGFAYWGQGTLVTVSS
VL: DIVMTQSPASLAVSLGERATISCRASENVDKYGNSFMHWYQQKPGQPPKLLIYRASELQWGVPDRFSGSGSGTDFTLTISSLQAEDVAVYYCQRSNEVPWTFGQGTKLEIK
notes: also called mAb D88
Kd [1]: 1.4 nM | Kd [2]: 3.3 nM | Kd [3]: 1.36 nM | Kd [4]: < 0.1 nM | Kd [5]: 148 nM | Kd [6]: 0.61 nM | Kd [7]: 8.43 nM | Kd [8]: 8.4 nM | Kd [9]: 100 nM | Kd [10]: 10.8 nM | Kd [11]: 3.12 nM | Kd [12]: 0.014 nM | Kd [13]: 0.012 nM | Kd [14]: < 0.1 nM | Kd [15]: < 0.1 nM | Kd [16]: 0.33 nM | Kd [17]: 0.024 nM | Kd [18]: 118 nM | Kd [19]: 2.47 nM | Kd [20]: 1.24 nM
